In patent US20240190931A1, “MAGEC2 IMMUNOGENIC PEPTIDES, BINDING PROTEINS RECOGNIZING MAGEC2 IMMUNOGENIC PEPTIDES, AND USES THEREOF” (TScan Therapeutics, Inc., priority 2021, published 2024):
Entries after “also recorded” stand apart in the source; their conditions may differ.

Tests used:
[1] = biological target: T1, MAGEC2 peptide on HLA-A*24:02 (human); assay: killing
T1 peptide: VGPDHFCVF

RAR peptide-pulsed cells = assay: T cell recognition assay: IFNγ release on co-culture with RAR peptide-pulsed wild-type HEK293T cells; format: cell-based, human; conditions: wild-type HEK293T cells pulsed with serial dilutions of RAR peptide, co-cultured with TCR-transduced T cells; FIG. 4A
Description: (§1) To characterize the recognition of the identified peptide by a TCR, wild-type HEK293 cells were pulsed with serial dilutions of peptide and co-cultured with T cells transduced with the TCR of interest. After 24 hours, cultures were mixed by pipetting, and centrifuged at 2,000 rpm for 2 minutes. Supernatants were collected and measured for IFNγ secretion using a human IFNγ 3rd generation single-plex assay (Protein Simple) following the manufacturer's instructions. Alternatively, monoallelic HEK293T cells expressing a granzyme-activated fluorescent reporter were pulsed with serial dilutions of peptide and co-cultured with T cells transduced with an individual TCR of interest. After 4 hours, the cultures were harvested by pipetting and fluorescence of the reporter was detected using a CytoFLEX™ S instrument (Beckman Coulter).

[2] = biological target: T2, RAR peptide-HLA-B*07:02 (pMHC) complex (Homo sapiens, UniProt P01889+Q9UBF1); assay: Peptide pulse-based cytotoxicity assay with granzyme-activated fluorescent reporter in HLA-B*07:02 monoallelic HEK293T cells; format: cell-based; conditions: HLA-B*07:02 monoallelic HEK293T reporter cells pulsed with RAR peptide, co-cultured with TCR-transduced T cells; FIG. 4B
T2 construct: expressed in transfected cells; host or cells: MHC-null HEK293T cells engineered to express HLA-B*07:02 (monoallelic reporter cells)
Description: as §1

[3] = system: melanoma cells that express MAGEC2; assay: Reactivity to melanoma cell lines measured by IFNγ release; format: cell-based, human
Description: To detect reactivity to melanoma cell lines, wild-type melanoma cell lines were seeded at 6×10^4 cells in a 96-well flat bottom plate and rested for 16 hours at 37° C. in 5% CO2. On the following day, T cells were thawed, washed in complete RPMI-1640 medium, and added to the wells for an effector to target ratio of 1:1. The co-culture was incubated for 16 hours. Cells were then harvested by pipetting, transferred to V-bottom 96-well plates, and centrifuged at 2,000 rpm for 2 minutes. The supernatant was collected for IFNγ measurement using a human IFNγ 3rd generation single-plex assay (Protein Simple). For flow cytometry analysis (Cytoflex S™ instrument, Beckman Coulter), cell pellets were washed with FACS buffer (PBS, 0.5% BSA, 2 mM EDTA) and stained for activation-induced markers, including PE-conjugated anti-CD137 (Miltenyi), AF647-conjugated anti-CD69 (Biolegend), and BV421-conjugated anti-CD8 (BioLegend).
Melanoma lines were purchased from ATCC (Manassas, VA) and HEK293T cells were originally from Takara Bio (Shiga, Japan). All media were supplemented with 10% FBS and 1% penicillin and incubated at 37° C. in 5% CO2. A101D, A2058, HT144, and HEK293T cells were maintained in complete DMEM. SK-MEL-5 was cultured in complete EMEM, whereas HMCB required complete EMEM with 10 mM HEPES. […]

[4] = system: MAGEC2-expressing melanoma cell lines; assay: Incucyte cytotoxicity assay on NucLight Red melanoma cell lines; format: cell-based, human; conditions: E:T ratio of 2:1; versus MHC-mismatched control TCR or no T cells; FIG. 6
Description: Melanoma lines were purchased from ATCC (Manassas, VA) and HEK293T cells were originally from Takara Bio (Shiga, Japan). All media were supplemented with 10% FBS and 1% penicillin and incubated at 37° C. in 5% CO2. A101D, A2058, HT144, and HEK293T cells were maintained in complete DMEM. SK-MEL-5 was cultured in complete EMEM, whereas HMCB required complete EMEM with 10 mM HEPES. Untransduced cancer cells were maintained in preparation for the T cell recognition assay, and 10^6 cells of each cell line were introduced with Incucyte® NucLight™ Red lentivirus reagent (Sartorius, Gottingen, Germany). Positively-labeled cells were selected using 1.5 ug/mL of puromycin over 72 hours.
Melanoma cells selected for Incucyte® NucLight™ analysis were seeded into 96-well flat bottom plates (Corning, Flintshire, UK) at 10^4 cells, except for HMCB cells, which were plated at 5×10^3 cells. On the same day, T cells were thawed, washed in complete RPMI-1640, and allowed to rest overnight in medium with 50 U/mL IL-2 (PeproTech), 5 ng/mL IL-7, and 5 ng/mL IL-15 (R&D Systems). All cells were rested for 16 hours at 37° C. in 5% CO2. A two-fold serial dilution of the T cells was performed for the effector to target ratios, with the highest E:T at 4:1, and the lowest at 1:2. […] Imaging utilized a 4× objective lens and data were analyzed using the Incucyte® Basic Software. […]

[5] = biological target: T3, MAGEC2 peptide on HLA-B*07:02 (human); assay: killing
T3 peptide: RAREFMELL

VGP peptide-pulsed cells = assay: IFP+ reporter-based cell killing of VGP peptide-pulsed HEK293T cells; design: species or system human; conditions: HEK293T cells pulsed with serial dilutions of VGP peptide, co-cultured with TCR-transduced T cells; FIG. 9A
Description: as §1
Data shown in FIGS. 7-9 were generated according to similar materials, methods, and experiments as described above.

B1: MAGEC2 TCR 4-58 (TCR, V domains shown)
Valpha: KNQVEQSPQSLIILEGKNCTLQCNYTVSPFSNLRWYKQDTGRGPVSLTIMTFSENTKSNGRYTATLDADTKQSSLHITASQLSDSASYICVVSARNAGNMLTFGGGTRLMVKP
Vbeta: EAQVTQNPRYLITVTGKKLTVTCSQNMNHEYMSWYRQDPGLGLRQIYYSMNVEVTDKGDVPEGYKVSRKEKRNFPLILESPSPNQTSLYFCACASSFGTSGRGEQFFGPGTRLTVL
B1: recognises [1].

B2: TCR 8-3: T cell receptor (TRAV24*01/TRAJ32*02; TRBV16*01/TRBJ1-1*01) recognizing MAGEC2 RAR peptide presented by HLA-B*07:02; tested in transduced T cells (protein)
TCR alpha: ILNVEQSPQSLHVQEGDSTNFTCSFPSSNFYALHWYRWETAKSPEALFVMTLNGDEKKKGRISATLNTKEGYSYLYIKGSQPEDSATYLCASGSGGATNKLIFGTGTLLAVQPNIQNPEPAVYQLKDPRSQDSTLCLFTDFDSQINVPKTMESGTFITDKCVLDMKAMDSKSNGAIAWSNQTSFTCQDIFKETNATYPSSDVPCDATLTEKSFETDMNLNFQNLLVMVLRILLLKVAGFNLLMTLRLWSS
TCR beta: GEEVAQTPKHLVRGEGQKAKLYCAPIKGHSYVFWYQQVLKNEFKFLISFQNENVFDETGMPKERFSAKCLPNSPCSLEIQATKLEDSAVYFCASSQSRSLRGTEAFFGQGTRLTVVEDLRNVTPPKVSLFEPSKAEIANKQKATLVCLARGFFPDHVELSWWVNGKEVHSGVCTDPQAYKESNYSYCLSSRLRVSATFWHNPRNHFRCQVQFHGLSEEDKWPEGSPKPVTQNISAEAWGRADCGITSASYQQGVLSATILYEILLGKATLYAVLVSTLVVMAMVKRKNS
For B2, the “Recognition of RAR peptide-pulsed cells (IFNγ release)” value (RAR peptide-pulsed cells) was “recognizes”, the “Killing of RAR peptide-pulsed cells (granzyme-activated fluorescent reporter)” value [2] was “demonstrated to kill cells expressing RAR peptide-HLA-B*07:02 (pMHC) complex; also recorded: kills” and the “Relation of TCR reactivity to MAGEC2 expression of melanoma cell lines” value ([3]; IFNγ release versus MAGEC2 expression, FIG. 5E) was “corresponds to MAGEC2 expression”. The “Recognition of melanoma cell lines (IFNγ release)” value ([3]; melanoma cell lines, E:T 1:1, 16 hours, FIG. 5D) was “recognizes melanoma cells that express MAGEC2” and the “Killing of MAGEC2-expressing melanoma cell lines (red object count over time)” value [4] was “demonstrated to kill cancer cells that express MAGEC2; also recorded: kills MAGEC2-expressing melanoma cell lines”.

B3: MAGEC2 TCR 8-3 (TCR, V domains shown)
Valpha: ILNVEQSPQSLHVQEGDSTNFTCSFPSSNFYALHWYRWETAKSPEALFVMTLNGDEKKKGRISATLNTKEGYSYLYIKGSQPEDSATYLCASGSGGATNKLIFGTGTLLAVQP
Vbeta: GEEVAQTPKHLVRGEGQKAKLYCAPIKGHSYVFWYQQVLKNEFKFLISFQNENVFDETGMPKERFSAKCLPNSPCSLEIQATKLEDSAVYFCASSQSRSLRGTEAFFGQGTRLTVV
B3: recognises [5].

B4: TCR 4-58: T cell receptor (TRAV10/TRAJ39; TRBV27) recognizing MAGEC2 VGP peptide presented by HLA-A*24:02; tested in transduced T cells (protein)
TCR alpha: RGNGKNQVEQSPQSLIILEGKNCTLQCNYTVSPFSNLRWYKQDTGRGPVSLTIMTFSENTKSNGRYTATLDADTKQSSLHITASQLSDSASYICVVSARNAGNMLTFGGGTRLMVKPHIQNPEPAVYQLKDPRSQDSTLCLFTDFDSQINVPKTMESGTFITDKCVLDMKAMDSKSNGAIAWSNQTSFTCQDIFKETNATYPSSDVPCDATLTEKSFETDMNLNFQNLLVMVLRILLLKVAGFNLLMTLRLWSS
TCR beta: EAQVTQNPRYLITVTGKKLTVTCSQNMNHEYMSWYRQDPGLGLRQIYYSMNVEVTDKGDVPEGYKVSRKEKRNFPLILESPSPNQTSLYFCACASSFGTSGRGEQFFGPGTRLTVLEDLRNVTPPKVSLFEPSKAEIANKQKATLVCLARGFFPDHVELSWWVNGKEVHSGVCTDPQAYKESNYSYCLSSRLRVSATFWHNPRNHFRCQVQFHGLSEEDKWPEGSPKPVTQNISAEAWGRADCGITSASYQQGVLSATILYEILLGKATLYAVLVSTLVVMAMVKRKNS
B4 was tested, and the “Recognition and killing of VGP peptide-pulsed cells (IFP+ reporter-based cell killing)” value (VGP peptide-pulsed cells) was “recognizes and kills VGP peptide-pulsed cells”.
